Measured values as given in the nanobody polyreactivity screen of Harvey et al. (2022).

assay: yeast display, Sf9 membrane polyspecificity reagent, FACS + sequencing; frameworks hold sequencing errors
Summary of the method: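 Sorting gates, low and high (top ~1%), were placed on anti-HA fluorescence to track expression and on streptavidin fluorescence to track reagent binding. A clone's polyreactivity label is taken from the gate it came out of. The reagent was 10% biotinylated, detergent-solubilized Sf9 membrane, applied for 1 hour at 4 °C to galactose-induced yeast display cells.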

Sequence	polyreactivity (PSR sort gate)
QVQLVESGGGLVQAGGSLRLSCAASGRTFNFNAMGWYRQAPGKERELVATITSRGGSTYADSVKGRFTISRDNAKNTVYLQMNSLKPEDTAVYYCNARTPYIRDYQYWRKYDYWGQGTQVTVSS	high polyreactivity
QVQLVESGGGLVQAGGSLRLSCAASGRTFNFYAMGWYRQAPGKERELVAAISRTGGITYYADSVKGRFTISRDNAKNTVYLQMNSLKPEDTAVYYCNAEYIYYYPTDPYTYYYWGQGTQVTVSS	low polyreactivity
QVQLVESGGGLVQAGGSLRLSCAASGRTFNFYPMGWYRPAPGKERELVAAITVRGGSTYYSDSVKGRFTISRYNAKNTVYLQMNSLKPEDTAVYYCAADPYPYYGAYDYWGQGTQVTVSS	high polyreactivity
QVQLVESGGGLVQAGGSLRLSCAASGRTFNFYTMGWYRQAPGKEREFVAGITSTGGSTDYADSVKGRFTISRDNAKNSVYLQMNSLKPEDTAVYYCNKVTSFVGEYDYWGQGTQVTVSS	high polyreactivity
QVQLVESGGGLVQAGGSLRLSCAASGRTFNHYAMGWYRQAPGKERELVAGITISGGSTYYADSVKGRFTISRDHAKNTVDLQMNSLKPEATAVYYCNAVSDYYRQSKWTMDYWGQGTQVTVSS	low polyreactivity
QVQLVESGGGLVQAGGSLRLSCAASGRTFNKYAMGWYRKAPGKERELVAAINYSGGRTYYADSVKGRFTISRDNAKNTVSLQMNSLKPEDTAVYYCNRDDAWQEYDYWGQGTQVTVSS	low polyreactivity
QVQLVESGGGLVQAGGSLRLSCAASGRTFNNYAMGWYRQAPGKERELVASIRKNGGSTYYADSVKGRFTISRDNAKNTVYLQMNSLKPEDTAVYYCGARYWGISRIFPSKYDYWGQGTQVTVSS	high polyreactivity
QVQLVESGGGLVQAGGSLRLSCAASGRTFNPYAMGWYRQAPGKERELVAVISSIGGSTYADSVKGRFTISRDNAKNTVYLQMNSLKPEDTAVYYCNRATFGQWGGDYWGQGTQVTVSS	high polyreactivity
QVQLVESGGGLVQAGGSLRLSCAASGRTFNRNAMGWYRQAPGKARELVAAISRGGGGTFFADSVKWRFTISRDNAKNTVYLQMNSLKPEDTAFYFCAAVPIAADKANGYDYWGQGTQVTVSS	low polyreactivity
QVQLVESGGGLVQAGGSLRLSCAASGRTFNRYAMGWYRQAPGKERELVAAITRGGSTYYADSVKGRFTISRDNAQNTVYLQMNSLKPEDTAVYYCAKYVYSEGYYWGQGTQVTVSS	high polyreactivity
QVQLVESGGGLVQAGGSLRLSCAASGRTFNRYAMGWYRQAPGKERELVAVITGSGGAGTYYADSVKGRFTISRDNAKNTVYLQMNSLKPEDTAVYYCNAGGGFYGSTVEHDYWGQGTQVTVSS	low polyreactivity
QVQLVESGGGLVQAGGSLRLSCAASGRTFNTYAMGWYRQAPGKERELVAAISRTGASTYYADSVKGRFTISRDNAKNTVYLQMNSLKPEDTAVYYCAADANSGDGYYWGQGTQVTVSS	high polyreactivity
QVQLVESGGGLVQAGGSLRLSCAASGRTFNTYDMGWYRQAPGKERELVAAITSRGGTTYYADSVKGRFTITRDNAKNTVYLQMNSLKPEDTAVSYCAADYYSWDYQYDYDYWGQGTQVTVSS	low polyreactivity
QVQLVESGGGLVQAGGSLRLSCAASGRTFNWYAMGWYRQAPGKERELVAAISSRGGSTYADSVKGRFTISRDNAKNTVYLQMNSLKPEDTAVYYCAARHHGTKYDYWGLGTQVTVSS	low polyreactivity
QVQLVESGGGLVQAGGSLRLSCAASGRTFNYNTMGWYRQAPGKERELVAAINKGGTRTYYADSVKGRFTISRDNAKNTVYLQMKSLNPEDTAVYYCAARIGGGSYWGQVTQVTVSS	high polyreactivity
QVQLVESGGGLVQAGGSLRLSCAASGRTFNYYAMGWYRQAPGKERELVAAISWSGTPTYYADSVKGRFTISRDNAKNTVYLQMNCLKPEDTAVYYCAAYLVSYPRGNYIRYDYWGQGTQVTVSS	low polyreactivity
QVQLVESGGGLVQAGGSLRLSCAASGRTFNYYGMGWYRQAPGKERELVAAISRGGTTNYADSVKGRFTISRDNAKNTVYLQMNSLKPEDTAVYYCAKGRSHWHSYQYVRPNYDYWGQGTQVTVSS	low polyreactivity
QVQLVESGGGLVQAGGSLRLSCAASGRTFPAYAMGWYRQAPGKERELVAAITWSGGRTYYADSVKGRFTISRDNAKNTVYLQMNSLKPEDTAVYYCAAQYRVLWYSYYYWGQGTQVTVSS	high polyreactivity
QVQLVESGGGLVQAGGSLRLSCAASGRTFPAYTMGWYRQAPGKERELVAAISRVGTTYYADSVKGRFTISRDNAKNTGYIQMNSLKPEDTAFYYCNARTWSWSFDYWGQGTLVTVSS	high polyreactivity
QVQLVESGGGLVQAGGSLRLSCAASGRTFPFNVMGWYRQAPGKERELVAAISSGGSTNYADSVKGRFTISRDNAKNTVYLQMNSLKPEDTAVYYCAAYSVYGRYGRTFYYWGQGTQVTVSS	high polyreactivity
QVQLVESGGGLVQAGGSLRLSCAASGRTFPFYAMGWYRPAPGKERELVAAIHSGGITNYADSVKGRFTISRDNAKNTVYLQMNSLKPEDYAVYDCAALTAFYRERGYWGEGTQVTVSS	low polyreactivity

Sequence	polyreactivity (PSR sort gate)
QVQLVESGGGLVQAGGSLRLSCAASGRTFPGYAMGWYRQAPGKERELVASITSRGGITYYADSVKGRFTISRDNAKNTVYLQMNSLKPEDTAVYYCATDFAVTKMEYWGQGTQVTVSS	low polyreactivity
QVQLVESGGGLVQAGGSLRLSCAASGRTFPGYGMGWYRQAPGKERELVAVITSNGGITYYADSVKGRFTISRDNAKNTVYLQMNSLKPEDTAVYYCAAQNVWFYGFWRDYWGQGTQVTVSS	low polyreactivity
QVQLVESGGGLVQAGGSLRLSCAASGRTFPHYAMGWYRQAPGKERELVAAITSGGTTNYADSVKGRFTISRDNEKNTVYLQLNSLKPEDTAVYYCNADMDLDTAWDGFVAYDYWGQGTQVTVSS	low polyreactivity
QVQLVESGGGLVQAGGSLRLSCAASGRTFPIYAMGWYRQAPGKERELVAAITYSGGSTYYADSVKGRFTISRDNAKNTVYLQMNSLKPEDTAVYYCAVDGTKPYWHQRYDYWGQGTQVTVSS	low polyreactivity
QVQLVESGGGLVQAGGSLRLSCAASGRTFPIYAMGWYRQAPGKERELVASITRSGGSTYYADSVKGRFTISRDNAKNTVYLQMNSLKPEDTAVYYCAAAANSYSVYTGKFYYWGQGTQVTVSS	high polyreactivity
QVQLVESGGGLVQAGGSLRLSCAASGRTFPIYAMGWYRQARGKERELVAAITYSGGSTYYADSVKGRFTISRDNAKNTDYLQMNSQKPEDTAVYYCAVDGTKPYWHQRYDYWGQGTQVTGSS	low polyreactivity
QVQLVESGGGLVQAGGSLRLSCAASGRTFPLYDMGWYRQAPGKERELVAAISLSGGRTYYADSVKGRFTISRDNAKNTVYLQMNSLKPEDTAVYYCAARGTLSAQVGIRRYDYWGQGTQVTVSS	low polyreactivity
QVQLVESGGGLVQAGGSLRLSCAASGRTFPPNSMAWYRQAPGKERELVAGITRGGNTYYADSVKGRFTISRDNAKNTVYLQMNSLKPEDTAVYYCAAERRYYSWYWYRVNYCGQGTQVTVSS	high polyreactivity
QVQLVESGGGLVQAGGSLRLSCAASGRTFPPYAMGWYRQAPGKERELVAANSWSGGSTYYADSVKGRFTISRDNAKNTVYLQMNSLKPEDTAVYYCAKATRDRGRYYYWGQGTQVTVSS	high polyreactivity
QVQLVESGGGLVQAGGSLRLSCAASGRTFPPYAMGWYRQAPGKERELVASIRRGGSTHYADSVKGRFTISRDNAKNTVYLQMNSLKPEDTAVYYCNADVIFGYTHYNYWGQGTQVTVSS	high polyreactivity
QVQLVESGGGLVQAGGSLRLSCAASGRTFPRNAMGWYRQAPGKERELVARINWSGGSTTYADSVKGRFTISRDNAKNTVYLQMNSLKPEDTAVYYCNARPYTSSFTKYGPSGYWGQGTQVTVSS	high polyreactivity
QVQLVESGGGLVQAGGSLRLSCAASGRTFPRYAMGWYRQAPGKERELVADISFSGDSTSYADSVKGRFTISRDNAKNTVYLQMNSLKPEDTAVYYCNADYKSTVFRYSGSRNYWGQGTQVTVSS	low polyreactivity
QVQLVESGGGLVQAGGSLRLSCAASGRTFPRYVMGWYRQAPGKERELVAAITSSGGSTYYADSVKGRFTISRDKAMNTVYLQMNSLKPEDTAVYYCAAFARPYSGQYAYRLDYWGQGTQVTVSS	high polyreactivity
QVQLVESGGGLVQAGGSLRLSCAASGRTFPVNAMGWYRQAPGKERELVATISWSGGSTYYADSVKGRFTISRDYAKNTVYLQMNSLKPEDTAVYYCAALGRHYRYDYWGQGTLVTVSS	low polyreactivity
QVQLVESGGGLVQAGGSLRLSCAASGRTFPYNAMGWYRQAPGKERELVAAITWSGGSTYYADSVKGRFTISRDNAKNTVYLQMNSLKPEDTAVYYCNKDFPVFEYDYWGQGTQVTVSS	low polyreactivity
QVQLVESGGGLVQAGGSLRLSCAASGRTFPYNAMGWYRQAPGKERELVAGITGGGSTYYADSVKGRFTISRDNAKKTVYLQMNSLKPEDTAVYYCAADRYFLYGTYPDVEFNYWGQGTQVTVSS	high polyreactivity
QVQLVESGGGLVQAGGSLRLSCAASGRTFPYNAMGWYRQAPGKERELVASITYNGGSTYYADSVKGRFTISRDNAKNTVYLQMISLKPEDTAVYYCAKLFRTYYATYNYWGQGTQVTVSS	high polyreactivity
QVQLVESGGGLVQAGGSLRLSCAASGRTFPYYAMGWYRQAPGKERELVAAINSGGITNYADSVKGRFTISRDNAKNTVYLQMNSLKPEDTAVYYCAAKTAFYRERGYWGQGTQVTVSS	low polyreactivity
QVQLVESGGGLVQAGGSLRLSCAASGRTFPYYAMGWYRQAPGKERELVAAITRGVRTHYADSVKGRFTISRDNAKYTVYLQMNSLKPEDTAVYYCAREDWGSYSDMDSWGQGTQVTVSS	low polyreactivity
QVQLVESGGGLVQAGGSLRLSCAASGRTFPYYAMGWYRQAPGKERELVARITSGSGTYYADSVKGRFTISRDNAKNTVYLQMNSLKPEDTAVYYCAAREPGVGYVGNYTGLVYWGQGTQVTVSS	low polyreactivity
